Data: US20110028686A1 (published 2011)
Square brackets hold non-standard residues; d marks the D form. Ends that are not written are not given here. * marks the point of attachment. Fluorescein(5-NHCOCH2) = O=C(C*)Nc1ccc2c(c1)C(=O)OC21c2ccc(O)cc2Oc2cc(O)ccc21; pS = N[C@@H](COP(=O)(O)O)C(=O)O

How the values were obtained:
HisKIX [1] = target: T1, HisKIX (UniProt P45481 586-672); experiment: FP, fluorescein-labelled peptide titrated with HisKIX, 25 C
T1 construct: range 586-672; the residue numbers fit mouse CBP; also called His-tagged CBP KIX domain; CBP KIX; not shown: amino-terminal hexahistidine tag and linker of pET15b
T1 sequence (P45481 586-672): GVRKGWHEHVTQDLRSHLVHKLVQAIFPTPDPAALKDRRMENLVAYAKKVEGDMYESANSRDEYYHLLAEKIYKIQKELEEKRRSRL

HisKIX [2] = target: T1, HisKIX; experiment: FP with HisKIX; end of the range assigned by Table 1
HisKIX [3] = target: T1, HisKIX; experiment: FP with HisKIX

B1: KID-B^P (peptide)
peptide: RRP[pS]YRKILNDLSSDAPGVC(acetamidofluorescein)-NH2
notes: also called KID-B (phosphorylated); CREB KID residues 130-148
- Kd (HisKIX [1]): 51.6 µM

Binder: GASDMTYWGDDAPVRRL[pS]FFYILLDLYLDAPGVC(Fluorescein(5-NHCOCH2))-NH2 (designed binder, also called PPKID1 (phosphorylated)) [PPKID1^P]
- fold enhancement in affinity upon phosphorylation (HisKIX [2]): 6 to 41 fold
- fold higher affinity than KID-B^P (HisKIX [2]): 43 to 87 fold
- ΔΔG upon phosphorylation (HisKIX [2]): -2.2 kcal/mol
- Kd (HisKIX [1]): 0.591 µM

Binder: GMSRVTPGGDDAPVRRLSFFYILRDLYLDAPGVC(acetamidofluorescein)-NH2 (designed binder, not fully specified, also called PPKID2 (unphosphorylated)) [PPKID2^U]
- Kd (HisKIX [1]): 12.6 µM

Binder: H-GASPHTSSGDDAPVRRL[pS]FFDILLDLYLDAPGVC(Fluorescein(5-NHCOCH2))-NH2 (designed binder, not fully specified, also called PPKID3 (phosphorylated)) [PPKID3^P]
- fold enhancement in affinity upon phosphorylation (HisKIX [2]): 6 to 41 fold
- fold higher affinity than KID-B^P (HisKIX [2]): 43 to 87 fold
- ΔΔG upon phosphorylation (HisKIX [2]): -1 kcal/mol
- Kd (HisKIX [1]): 1.2 µM

B2: PPKID5^P (designed binder)
peptide: GLSWPTYHGDDAPVRRL[pS]FFYILLDLYLDAPGVC(Fluorescein(5-NHCOCH2))-NH2
modifications: N-terminus assumed
SMILES: CC[C@H](C)[C@H](NC(=O)[C@H](Cc1ccc(O)cc1)NC(=O)[C@H](Cc1ccccc1)NC(=O)[C@H](Cc1ccccc1)NC(=O)[C@H](COP(=O)(O)O)NC(=O)[C@H](CC(C)C)NC(=O)[C@H](CCCNC(=N)N)NC(=O)[C@H](CCCNC(=N)N)NC(=O)[C@@H](NC(=O)[C@@H]1CCCN1C(=O)[C@H](C)NC(=O)[C@H](CC(=O)O)NC(=O)[C@H](CC(=O)O)NC(=O)CNC(=O)[C@H](Cc1c[nH]cn1)NC(=O)[C@H](Cc1ccc(O)cc1)NC(=O)[C@@H](NC(=O)[C@@H]1CCCN1C(=O)[C@H](Cc1c[nH]c2ccccc12)NC(=O)[C@H](CO)NC(=O)[C@H](CC(C)C)NC(=O)CN)[C@@H](C)O)C(C)C)C(=O)N[C@@H](CC(C)C)C(=O)N[C@@H](CC(C)C)C(=O)N[C@@H](CC(=O)O)C(=O)N[C@@H](CC(C)C)C(=O)N[C@@H](Cc1ccc(O)cc1)C(=O)N[C@@H](CC(C)C)C(=O)N[C@@H](CC(=O)O)C(=O)N[C@@H](C)C(=O)N1CCC[C@H]1C(=O)NCC(=O)N[C@H](C(=O)N[C@@H](CSCC(=O)Nc1ccc2c(c1)C(=O)OC21c2ccc(O)cc2Oc2cc(O)ccc21)C(N)=O)C(C)C
notes: also called PPKID5 (phosphorylated)
- Kd (HisKIX [1]): 0.534 µM

B3: PPKID6 S18E (designed binder)
peptide: GISWPTFEGDDAPVRRLEFFYILLDLYLDAPGVC(Fluorescein(5-NHCOCH2))-NH2
modifications: N-terminus assumed
SMILES: CC[C@H](C)[C@H](NC(=O)CN)C(=O)N[C@@H](CO)C(=O)N[C@@H](Cc1c[nH]c2ccccc12)C(=O)N1CCC[C@H]1C(=O)N[C@H](C(=O)N[C@@H](Cc1ccccc1)C(=O)N[C@@H](CCC(=O)O)C(=O)NCC(=O)N[C@@H](CC(=O)O)C(=O)N[C@@H](CC(=O)O)C(=O)N[C@@H](C)C(=O)N1CCC[C@H]1C(=O)N[C@H](C(=O)N[C@@H](CCCNC(=N)N)C(=O)N[C@@H](CCCNC(=N)N)C(=O)N[C@@H](CC(C)C)C(=O)N[C@@H](CCC(=O)O)C(=O)N[C@@H](Cc1ccccc1)C(=O)N[C@@H](Cc1ccccc1)C(=O)N[C@@H](Cc1ccc(O)cc1)C(=O)N[C@H](C(=O)N[C@@H](CC(C)C)C(=O)N[C@@H](CC(C)C)C(=O)N[C@@H](CC(=O)O)C(=O)N[C@@H](CC(C)C)C(=O)N[C@@H](Cc1ccc(O)cc1)C(=O)N[C@@H](CC(C)C)C(=O)N[C@@H](CC(=O)O)C(=O)N[C@@H](C)C(=O)N1CCC[C@H]1C(=O)NCC(=O)N[C@H](C(=O)N[C@@H](CSCC(=O)Nc1ccc2c(c1)C(=O)OC21c2ccc(O)cc2Oc2cc(O)ccc21)C(N)=O)C(C)C)[C@@H](C)CC)C(C)C)[C@@H](C)O
- fold decrease in affinity against PPKID6^U (HisKIX [3]): 7 fold
- ΔΔG relative to PPKID6^U (HisKIX [3]): 1.2 kcal/mol
- Kd (HisKIX [1]): 10.9 µM

B4: PPKID4^U (designed binder)
peptide: GPSQPTYPGDDAPVRRLSFFYILLDLYLDAPGVC(Fluorescein(5-NHCOCH2))-NH2
modifications: N-terminus assumed
SMILES: CC[C@H](C)[C@H](NC(=O)[C@H](Cc1ccc(O)cc1)NC(=O)[C@H](Cc1ccccc1)NC(=O)[C@H](Cc1ccccc1)NC(=O)[C@H](CO)NC(=O)[C@H](CC(C)C)NC(=O)[C@H](CCCNC(=N)N)NC(=O)[C@H](CCCNC(=N)N)NC(=O)[C@@H](NC(=O)[C@@H]1CCCN1C(=O)[C@H](C)NC(=O)[C@H](CC(=O)O)NC(=O)[C@H](CC(=O)O)NC(=O)CNC(=O)[C@@H]1CCCN1C(=O)[C@H](Cc1ccc(O)cc1)NC(=O)[C@@H](NC(=O)[C@@H]1CCCN1C(=O)[C@H](CCC(N)=O)NC(=O)[C@H](CO)NC(=O)[C@@H]1CCCN1C(=O)CN)[C@@H](C)O)C(C)C)C(=O)N[C@@H](CC(C)C)C(=O)N[C@@H](CC(C)C)C(=O)N[C@@H](CC(=O)O)C(=O)N[C@@H](CC(C)C)C(=O)N[C@@H](Cc1ccc(O)cc1)C(=O)N[C@@H](CC(C)C)C(=O)N[C@@H](CC(=O)O)C(=O)N[C@@H](C)C(=O)N1CCC[C@H]1C(=O)NCC(=O)N[C@H](C(=O)N[C@@H](CSCC(=O)Nc1ccc2c(c1)C(=O)OC21c2ccc(O)cc2Oc2cc(O)ccc21)C(N)=O)C(C)C
notes: also called PPKID4 (unphosphorylated)
- Kd (HisKIX [1]): 12.1 µM

B5: PPKID8^U (designed binder)
peptide: GLSWKTDPGDDAPVRRLSFFYILLDLYLDAPGVC(Fluorescein(5-NHCOCH2))-NH2
modifications: N-terminus assumed
SMILES: CC[C@H](C)[C@H](NC(=O)[C@H](Cc1ccc(O)cc1)NC(=O)[C@H](Cc1ccccc1)NC(=O)[C@H](Cc1ccccc1)NC(=O)[C@H](CO)NC(=O)[C@H](CC(C)C)NC(=O)[C@H](CCCNC(=N)N)NC(=O)[C@H](CCCNC(=N)N)NC(=O)[C@@H](NC(=O)[C@@H]1CCCN1C(=O)[C@H](C)NC(=O)[C@H](CC(=O)O)NC(=O)[C@H](CC(=O)O)NC(=O)CNC(=O)[C@@H]1CCCN1C(=O)[C@H](CC(=O)O)NC(=O)[C@@H](NC(=O)[C@H](CCCCN)NC(=O)[C@H](Cc1c[nH]c2ccccc12)NC(=O)[C@H](CO)NC(=O)[C@H](CC(C)C)NC(=O)CN)[C@@H](C)O)C(C)C)C(=O)N[C@@H](CC(C)C)C(=O)N[C@@H](CC(C)C)C(=O)N[C@@H](CC(=O)O)C(=O)N[C@@H](CC(C)C)C(=O)N[C@@H](Cc1ccc(O)cc1)C(=O)N[C@@H](CC(C)C)C(=O)N[C@@H](CC(=O)O)C(=O)N[C@@H](C)C(=O)N1CCC[C@H]1C(=O)NCC(=O)N[C@H](C(=O)N[C@@H](CSCC(=O)Nc1ccc2c(c1)C(=O)OC21c2ccc(O)cc2Oc2cc(O)ccc21)C(N)=O)C(C)C
- fold enhancement in affinity over KID-AB^U (HisKIX [2]): ≥ 37 fold
- fold enhancement in affinity over KID-B^U (HisKIX [2]): ≥ 96 fold
- fold enhancement in affinity over peptide C^U (HisKIX [2]): 7 to 14 fold
- Kd (HisKIX [1]): 3.1 µM

Binder: GASDMTYWGDDAPVRRLSFFYILLDLYLDAPGVC(acetamidofluorescein)-NH2 (designed binder, also called PPKID1 (unphosphorylated)) [PPKID1^U]
- fold change in affinity against peptide C^U (HisKIX [2]): 1 to 3 fold
- ΔΔG relative to peptide C^U (HisKIX [2]): 0.1 kcal/mol
- Kd (HisKIX [1]): 24.1 µM

Binder: GASPHTSSGDDAPVRRLSFFDILLDLYLDAPGVC(acetamidofluorescein)-NH2 (designed binder, not fully specified, also called PPKID3 (unphosphorylated)) [PPKID3^U]
- fold change in affinity against peptide C^U (HisKIX [2]): 1 to 3 fold
- ΔΔG relative to peptide C^U (HisKIX [2]): -0.7 kcal/mol
- Kd (HisKIX [1]): 6.7 µM

Binder: GLSPYTEWGDDAPVRRLSFFYILLDLYLDAPGVC(acetamidofluorescein)-NH2 (designed binder) [PPKID7^U]
- Kd (HisKIX [1]): 2.3 µM

Binder: H-GMSRVTPGGDDAPVRRL[pS]FFYILRDLYLDAPGVC(Fluorescein(5-NHCOCH2))-NH2 (designed binder, not fully specified, also called PPKID2 (phosphorylated)) [PPKID2^P]
- Kd (HisKIX [1]): 0.729 µM

B6: PPKID5^U (designed binder)
peptide: GLSWPTYHGDDAPVRRLSFFYILLDLYLDAPGVC(Fluorescein(5-NHCOCH2))-NH2
modifications: N-terminus assumed
SMILES: CC[C@H](C)[C@H](NC(=O)[C@H](Cc1ccc(O)cc1)NC(=O)[C@H](Cc1ccccc1)NC(=O)[C@H](Cc1ccccc1)NC(=O)[C@H](CO)NC(=O)[C@H](CC(C)C)NC(=O)[C@H](CCCNC(=N)N)NC(=O)[C@H](CCCNC(=N)N)NC(=O)[C@@H](NC(=O)[C@@H]1CCCN1C(=O)[C@H](C)NC(=O)[C@H](CC(=O)O)NC(=O)[C@H](CC(=O)O)NC(=O)CNC(=O)[C@H](Cc1c[nH]cn1)NC(=O)[C@H](Cc1ccc(O)cc1)NC(=O)[C@@H](NC(=O)[C@@H]1CCCN1C(=O)[C@H](Cc1c[nH]c2ccccc12)NC(=O)[C@H](CO)NC(=O)[C@H](CC(C)C)NC(=O)CN)[C@@H](C)O)C(C)C)C(=O)N[C@@H](CC(C)C)C(=O)N[C@@H](CC(C)C)C(=O)N[C@@H](CC(=O)O)C(=O)N[C@@H](CC(C)C)C(=O)N[C@@H](Cc1ccc(O)cc1)C(=O)N[C@@H](CC(C)C)C(=O)N[C@@H](CC(=O)O)C(=O)N[C@@H](C)C(=O)N1CCC[C@H]1C(=O)NCC(=O)N[C@H](C(=O)N[C@@H](CSCC(=O)Nc1ccc2c(c1)C(=O)OC21c2ccc(O)cc2Oc2cc(O)ccc21)C(N)=O)C(C)C
notes: also called PPKID5 (unphosphorylated)
- Kd (HisKIX [1]): 6.6 µM
